Assay results as given in publication PMC2532785 (The EMBO Journal, 2008).
Changes are numbered by the printed parent chain. In names and notes the source's numbering stands.

B1: WT Irga6, recombinant (enzyme, mouse, UniProt Q9QZ85 1-413, looked up)
chain: MGQLFSSPKSDENNDLPSSFTGYFKKFNTGRKIISQEILNLIELRMRKGNIQLTNSAISDALKEIDSSVLNVAVTGETGSGKSSFINTLRGIGNEEEGAAKTGVVEVTMERHPYKHPNIPNVVFWDLPGIGSTNFPPNTYLEKMKFYEYDFFIIISATRFKKNDIDIAKAISMMKKEFYFVRTKVDSDITNEADGKPQTFDKEKVLQDIRLNCVNTFRENGIAEPPIFLLSNKNVCHYDFPVLMDKLISDLPIYKRHNFMVSLPNITDSVIEKKRQFLKQRIWLEGFAADLVNIIPSLTFLLDSDLETLKKSMKFYRTVFGVDETSLQRLARDWEIEVDQVEAMIKSPAVFKPTDEETIQERLSRYIQEFCLANGYLLPKNSFLKEIFYLKYYFLDMVTEDAKTLLKEICLRN
B2: Irga6-K82A, recombinant (enzyme, mouse, UniProt Q9QZ85 1-413, looked up)
chain: B1 chain with K82A

Molecular target: the molecule itself
Experiment: conventional and dynamic light scattering

Row | Protein | binding result
1 | B1 | binds
2 | B2 | binds
